Assay results reported in PMC6480404.

Key:
[1] = target: Streptococcus pyogenes Cas9 (Streptococcus pyogenes) (UniProt Q99ZW2); assay: native gel or EMSA
[2] = target: Streptococcus pyogenes Cas9 (Streptococcus pyogenes) (UniProt Q99ZW2); assay: cryo-EM structure

Substance: AcrIIA2 (natural protein)
- Kd [1]: 512 nM
- stoichiometry N [2]: 1
